Measured values reported in the supplement of paper PMC10567573.
± gives the standard deviation.

Assay: protein stability index of a GFP-peptide fusion (GPS, HEK-293T) (PSI 1-6); higher = more stable
[1] = treatment: DMSO, c terminus: a fixed tail appended
[2] = treatment: MLN4924 1 uM, 8 h, c terminus: a fixed tail appended
[3] = treatment: DMSO, c terminus: native
[4] = treatment: MLN4924 1 uM, 8 h, c terminus: native
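Also: 24-mer peptide tiles fused after GFP, lentivirally expressed, FACS-sorted into six equal bins by GFP/DsRed ratio, decoded by Illumina sequencing, PSI is the read-weighted mean bin number.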

Sequence | protein stability index [1] | protein stability index [2] | protein stability index [3] | protein stability index [4]
MATEGLHENETLASLKSEAESLKG [GNB5] | 5.31 ± 0.23 | 5.2 ± 0.15 | – | –
MCPLYDPNRQLWIELAPLSMPRIN [GAN] | 2.22 ± 0.11 | 2.23 ± 0.28 | – | –
MEEGERSPLLSQETAGQKPLSVHR [TSPAN10] | 5.08 ± 0.11 | 5.02 ± 0.18 | – | –
METFDPTELPELLKLYYRRLFPYS [PRIM1] | 2.43 ± 0.51 | 2.38 ± 0.35 | – | –
MGIVNLNIHMNFTHICRSHNSINQ [SLC2A12] | 2.73 ± 0.52 | 2.9 ± 0.46 | – | –
MGIYQMYLCFLLAVLLQLYVATEA [SLC22A15] | 2.92 ± 0.38 | 2.84 ± 0.41 | – | –
MGLYDGMEHLIYGEPRKLLTQDWV [MAGEA10] | 2.25 ± 0.31 | 2.28 ± 0.51 | – | –
MIMLKDRRMTVVGRLEGLIQPDDL [FAF2] | 2.34 ± 0.25 | 2.56 ± 0.29 | – | –
MKDRTQELRTAKDSDDDDDVAVTV [STX1A] | 5.11 ± 0.33 | 5.43 ± 0.32 | – | –
MLATRNFSGGKSGGNKKSDGVKES [CAMK2A] | 4.51 ± 0.7 | 4.54 ± 0.12 | – | –
MLEASEWATIEGLVELLQPFKQVA [ZBED1] | 2.23 ± 0.76 | 2.27 ± 0.23 | – | –
MLERRYTPYPNLYPDQSPSEDWTM [CLCN6] | 3 ± 0.3 | 3.16 ± 0.23 | – | –
MLPTVITDIKDESCCMTEEIFGPV [ALDH8A1] | 3.83 ± 0.2 | 3.81 ± 0.13 | – | –
MLRSGLSGLGSCLPGSYLSSECHT [KRT36] | 2.42 ± 0.12 | 2.37 ± 0.092 | – | –
MLYEKQKQQNVAHCMLVSNRVSWW [ZBED1] | 2.08 ± 0.17 | 2.31 ± 0.2 | – | –
MNPYKIDIGAVYSHRPNQHNTVKL [PRIM1] | 2.79 ± 0.06 | 2.43 ± 0.37 | – | –
MPAATVDHSQRICEVWACNLDEEM [CNOT7] | 4.65 ± 0.41 | 4.77 ± 0.28 | – | –
MPEEVHHGEEEVETFAFQAEIAQL [HSP90AB1] | 5.24 ± 0.28 | 5.16 ± 0.14 | – | –
MQGNQILVFPSSSSSSSSQAPGQP [ZBTB22] | 4.28 ± 0.24 | 4.22 ± 0.22 | – | –
MQIAVPCAFLLLRLLVGLALATLR [TMEM175] | 2.46 ± 0.28 | 2.26 ± 0.17 | – | –
MQRGARLPAEVAGLSQVLLRGGGQ [POMT2] | 3.6 ± 0.27 | 3.64 ± 0.21 | – | –
MRHEELLTKTFQGPAVVCGTPTSH [LYSMD4] | 3.82 ± 0.19 | 3.82 ± 0.13 | – | –

Sequence | protein stability index [1] | protein stability index [2] | protein stability index [3] | protein stability index [4]
MRLNSTGEVPVLIHGENIICEATQ [GDAP1] | 3.69 ± 0.17 | 3.8 ± 0.45 | – | –
MRSNYPPPLSSAALRGAGPTRRN [C6orf223] | – | – | 3.1 ± 1.3 | 3.18 ± 0.51
MTLLPGDNSDYDYSALSCTSDASF [KCNG1] | 3.79 ± 0.27 | 3.87 ± 0.24 | – | –
MTVMSGENVDEASAAPGHPQDGSY [KCNA1] | 5.37 ± 0.21 | 5.12 ± 0.14 | – | –
MTVVRMDASVQPGPFRTLLQFLYT [RHOBTB1] | 2.41 ± 0.4 | 2.25 ± 0.4 | – | –
MVDIIFHYPFLGAMGDHSKKKPGT [ISL2] | 2.34 ± 0.28 | 2.38 ± 0.61 | – | –
MVKEPVEDTDPSTLSFNMSDKYPI [EDARADD] | 4.37 ± 0.43 | 4.5 ± 0.29 | – | –
MVRKIGCYAAMKKKIYAMGGGSYG [GAN] | 2.28 ± 0.17 | 2.45 ± 0.38 | – | –
NAIPGRTDIELEIYGMEGIPEKDM [ZNF207] | 4.23 ± 0.35 | 4.37 ± 0.29 | – | –
NAVKYVSNIKFCSFHPLQYIGFYG [PDS5B] | 2.89 ± 0.25 | 2.35 ± 0.54 | – | –
NDIFQAANPYWTSRGSSVSMSGGR [TRIM63] | 3.76 ± 0.34 | 3.63 ± 0.062 | – | –
NESALVKEKELSIELANIRDEVAF [MTUS2] | 4.42 ± 0.28 | 4.33 ± 0.46 | – | –
NEVRRGSPVLLGWVEQAYADKCVC [TIAF1] | 2.64 ± 0.087 | 2.88 ± 0.27 | – | –
NFFTTLRVVHHKFHSQRHGSKKD [TMEM120A] | – | – | 3.32 ± 0.33 | 3.3 ± 0.45
NIHENKRTGSLFKIWLVVPSLLEL [KLHDC10] | 3.16 ± 0.49 | 3.15 ± 0.42 | – | –
NIHMNFTHICRSHNSINQSLDESV [SLC2A12] | 2.56 ± 0.25 | 2.54 ± 0.23 | – | –
NILFDFVKKKKEEGVIDSSDKEIV [EIF5] | 3.65 ± 0.12 | 3.74 ± 0.27 | – | –
NISCFFRLVDRDSVWGYDLGLRSL [MYORG] | 3.01 ± 0.41 | 2.95 ± 0.7 | – | –
NKALSIILHLICLLEKVPCTLEQD [FEM1C] | 2.87 ± 0.25 | 3.13 ± 0.71 | – | –
NKKGFWSYGPVILVVLVVAVVASS [TOR1AIP2] | 1.78 ± 0.42 | 1.83 ± 0.042 | – | –
NKQKCVERNEVRNVFKELQIMQGL [STK32A] | 2.94 ± 0.4 | 2.93 ± 0.24 | – | –
NLLLQPTTNPHTSASHRPCVNGDV [SMG5] | 3.48 ± 0.23 | 3.54 ± 0.43 | – | –

Sequence | protein stability index [1] | protein stability index [2] | protein stability index [3] | protein stability index [4]
NNPFAKGFRGSDDMELHRMSRMQS [TBX5] | 4.15 ± 0.33 | 4.06 ± 0.22 | – | –
NPGTDAVAQTSLEEFNVLEMEVMR [FATE1] | 4.71 ± 0.18 | 4.68 ± 0.13 | – | –
NQAGFTLHSAIYAARPDVKCVVHI [ADD1] | 3.1 ± 0.42 | 3.15 ± 0.62 | – | –
NQEITKAFHVRRTNRVKECLAKGT [RHOBTB2] | 3.41 ± 0.51 | 3.64 ± 0.7 | – | –
NSFSLNSSISSSARRTTRSEPIRR [MAP2] | 4.46 ± 0.27 | 4.53 ± 0.13 | – | –
NSIAHYRQVNIRTANCTTANQNCV [KCNA1] | 3.17 ± 0.17 | 3.19 ± 0.27 | – | –
NSSQLLLRRHAGLLDGLARRVGIL [SCARA5] | 2.72 ± 0.027 | 2.69 ± 0.28 | – | –
NSVCSKFRKEIKSKSADNQEYFER [RHOBTB1] | 4.26 ± 0.19 | 4.45 ± 0.32 | – | –
NTNLHTHQRTHTGEKPFTCHECGK [ZNF75A] | 4.51 ± 0.14 | 4.54 ± 0.18 | – | –
NTTLTQYQLLATHVPTVWAIDQYR [RHOBTB1] | 2.75 ± 0.56 | 2.41 ± 0.43 | – | –
NVEDHINPKLPNISLDVLQPSFPE [POMT2] | 4.58 ± 0.22 | 4.7 ± 0.15 | – | –
NVLSVNLPDNFTLKEDGMETVPWF [TPH1] | 2.75 ± 0.21 | 2.92 ± 0.17 | – | –
NYMVQTEDQYIFIHDALLEAVTCG [PTPRD] | 2.25 ± 0.35 | 2.13 ± 0.37 | – | –
PAITATLLDFMCRIIPNFYPPLEG [INTS3] | 3.07 ± 0.13 | 3.1 ± 0.32 | – | –
PAPPPPAGGATAWGDLLGEDSLAA [SNAP91] | 5.13 ± 0.22 | 5.11 ± 0.13 | – | –
PATSPLVLAIPRRLRVELECEEGE [TRIM35] | 4.92 ± 0.22 | 4.78 ± 0.13 | – | –
PAVEACENRRKVLYQRAPRNIHRH [TCF25] | 3.88 ± 0.23 | 3.81 ± 0.15 | – | –
PAVENKQQIGDAIRMIVRGTLGSC [PLK2] | 3.03 ± 0.32 | 3.03 ± 0.19 | – | –
PDGVCLSGGRGPQGDKAIREQGPR [PBXIP1] | 5.21 ± 0.14 | 4.88 ± 0.35 | – | –
PDIRTKDIEDVFYKYGAIRDIDLK [SRSF1] | 3.59 ± 0.12 | 3.62 ± 0.24 | – | –
PESETSILLSWTPPRSDTIANYEL [PTPRD] | 3.09 ± 0.35 | 2.96 ± 0.39 | – | –
